Assay [1] has as its target human secretin receptor (hSCTR) (human, UniProt P47872 23-440). Kind of assay: cell-based or functional assay.
Assay [2] addresses human GLP-1 receptor (hGLP1R) (human, UniProt P43220 24-463). Kind of assay: cell-based or functional assay.

Numbered stars: 1 amine (or outer) side, 2 acyl side, 3 side chain; on linkers, the order of the positions; unused ones are H or OH. Square brackets hold non-standard residues; d marks the D form. Side chains are listed from the residue outwards. Ends that are not written are not given here. * marks the point of attachment. C20 diacid = O=C(O)CCCCCCCCCCCCCCCCCCC(=O)*; γGlu = O=C(O)[C@H](CCC(=O)[*:2])N[*:1]; AEEA = NCCOCCOCC(=O)O; Aib = CC(C)(N)C(=O)O

human secretin receptor (hSCTR), sequence (P47872 23-440): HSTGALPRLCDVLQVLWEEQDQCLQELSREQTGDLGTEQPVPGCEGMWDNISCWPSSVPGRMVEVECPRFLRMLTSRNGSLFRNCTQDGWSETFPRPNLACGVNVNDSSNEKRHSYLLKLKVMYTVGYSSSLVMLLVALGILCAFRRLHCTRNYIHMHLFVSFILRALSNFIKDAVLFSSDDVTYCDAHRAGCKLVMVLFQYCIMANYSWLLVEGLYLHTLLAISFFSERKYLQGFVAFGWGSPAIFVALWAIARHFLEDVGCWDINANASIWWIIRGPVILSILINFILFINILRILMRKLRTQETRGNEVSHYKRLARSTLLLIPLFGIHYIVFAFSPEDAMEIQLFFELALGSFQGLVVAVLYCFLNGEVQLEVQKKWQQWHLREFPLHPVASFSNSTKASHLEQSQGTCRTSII

H[Aib]EGTFTSDVSYLYEEA[Aib]LQRFLEKLV-NH2 (not fully specified (residue 25)) [SEQ ID NO: 143]: the “pEC50 hSCTR” value in assay [1] was 6.1 -log M. Besides, the “pEC50 hGLPR1” value in assay [2] is 11 -log M.
Taken in the same sequence, the figures for H[Aib]EGTFTSDVSYLKEEA[Aib]LQRFLEKLV-NH2 (not fully specified (residue 14)) [SEQ ID NO: 147] were 7.2 -log M and 11.3 -log M.

B1: SEQ ID NO: 142 (peptide)
peptide: HGEGTFTSDVSYLKEEA[Aib]LQRFLEHLV-NH2
modifications: not fully specified (residue 14); also: K14 lipidated with C20DA[γE][OEG][OEG]- or C18DA[γE][OEG][OEG]-
Regarding B1, in assay [1], the “pEC50 hSCTR” value is 4.7 -log M. In addition, the “pEC50 hGLPR1” value in assay [2] is 10.9 -log M.
The like results for H[Aib]EGTFTSDVSYLKEEA[Aib]GQRFLEHLV-NH2 (not fully specified (residue 14)) [SEQ ID NO: 154] were, in that order, 5.4 -log M and 10.8 -log M.
Take H[Aib]EGTFTSDVSYLKEEA[Aib]IQRFLEHLV-NH2 (not fully specified (residue 14)) [SEQ ID NO: 139]: the “pEC50 hSCTR” value in assay [1] was 6.9 -log M. Besides, the “pEC50 hGLPR1” value in assay [2] is 11.2 -log M.
Taken in the same sequence, the figures for H[Aib]EGTFTSDVSDLKEEA[Aib]LQRFLEHLV-NH2 (not fully specified (residue 14)) [SEQ ID NO: 153] were 6.5 -log M and 10.7 -log M.
Taken in the same sequence, the figures for H[Aib]EGTFTSDVSVLKEEA[Aib]LQRFLEHLV-NH2 (not fully specified (residue 14)) [SEQ ID NO: 138] were 7.5 -log M and 10.9 -log M.
Taken in the same sequence, the figures for H[Aib]EGTFTSDVSNLKEEA[Aib]LQRFLEHLV-NH2 (not fully specified (residue 14)) [SEQ ID NO: 136] were 7.9 -log M and 10.9 -log M.

B2: SEQ ID NO: 145 (peptide)
peptide: H[Aib]EGTFTSDVSHLKEEA[Aib]LQRFLEHLV-NH2
modifications: not fully specified (residue 14); also: K14 lipidated with C20DA[γE][OEG][OEG]- or C18DA[γE][OEG][OEG]-
For the molecule B2, in assay [1], the “pEC50 hSCTR” value is 7.2 -log M. In assay [2], the “pEC50 hGLPR1” value was 11.1 -log M.
The like results for H[Aib]EGTFTSDVSYLKEEA[Aib]LQRWLEHLV-NH2 (not fully specified (residue 14)) [SEQ ID NO: 135] were, in that order, 6.9 -log M and 11.3 -log M.
Taken in the same sequence, the figures for H[Aib]EGTFTSDVSVLKE[Aib]AAAQRFLEHLV-NH2 (not fully specified (residue 14)) [SEQ ID NO: 15] were 6.5 -log M and 10.1 -log M.

B3: SEQ ID NO: 140 (peptide)
peptide: H[Aib]EGTFTSDVSPLKEEA[Aib]LQRFLEHLV-NH2
modifications: not fully specified (residue 14); also: K14 lipidated with C20DA[γE][OEG][OEG]- or C18DA[γE][OEG][OEG]-
Consider B3, for which the “pEC50 hSCTR” value in assay [1] was 4.7 -log M. Further, the “pEC50 hGLPR1” value in assay [2] was 8.9 -log M.
Taken in the same sequence, the figures for H[Aib]EGTFTSDVSYLKEEAALQRFLEHLV-NH2 (not fully specified (residue 14)) [SEQ ID NO: 137] were 7.1 -log M and 11.1 -log M.
Taken in the same sequence, the figures for H[Aib]VGTFTSDVSYLKEEA[Aib]LQRFLEHLV-NH2 (not fully specified (residue 14)) [SEQ ID NO: 155] were 4.6 -log M and 10.9 -log M.
Taken in the same sequence, the figures for H[Aib]EGTFTSDVSALKEEA[Aib]LQRFLEHLV-NH2 (not fully specified (residue 14)) [SEQ ID NO: 148] were 7.2 -log M and 10.8 -log M.

B4: SEQ ID NO: 14 (peptide)
peptide: H[Aib]EGTFTSDVSELKEEAAQQRFLEHLV-NH2
modifications: not fully specified (residue 14); also: K14 lipidated with C20DA[γE][OEG][OEG]- or C18DA[γE][OEG][OEG]-
As for B4, the “pEC50 hSCTR” value in assay [1] is 6.7 -log M. The “pEC50 hGLPR1” value in assay [2] is 10.7 -log M.
In the case of H[Aib]EGTFTSDVSYLKEEA[Aib]AQRFLEHLV-NH2 (not fully specified (residue 14)) [SEQ ID NO: 146], in assay [1], the “pEC50 hSCTR” value was 5.7 -log M. Also, the “pEC50 hGLPR1” value in assay [2] is 11.6 -log M.
The like results for H[Aib]EGTFTSDVSYLKEEA[Aib][Aib]QRFLEHLV-NH2 (not fully specified (residue 14)) [SEQ ID NO: 152] were, in that order, 5.4 -log M and 10.9 -log M.
In the case of H[Aib]EGTFTSDVSLLKEEA[Aib]LQRFLEHLV-NH2 (not fully specified (residue 14)) [SEQ ID NO: 149], in assay [1], the “pEC50 hSCTR” value is 7.5 -log M. Besides, the “pEC50 hGLPR1” value in assay [2] is 10.9 -log M.

B5: SEQ ID NO: 141 (peptide)
peptide: H[Aib]EGTFTSDVSYLKEEA[Aib]LQRYLEHLV-NH2
modifications: not fully specified (residue 14); also: K14 lipidated with C20DA[γE][OEG][OEG]- or C18DA[γE][OEG][OEG]-
Regarding B5, the “pEC50 hSCTR” value in assay [1] was 6.6 -log M. Also, the “pEC50 hGLPR1” value in assay [2] was 11.4 -log M.
The like results for H[Aib]EGTFTSDVSRLK([AEEA-AEEA-γGlu-C20 diacid])EFAAAQRFLEHLV-NH2 [SEQ ID NO: 2] were, in that order, 6.3 -log M and 10.1 -log M.
Taken in the same sequence, the figures for H[Aib]EGTFTSDVSYLKEEA[Aib]EQRFLEHLV-NH2 (not fully specified (residue 14)) [SEQ ID NO: 150] were 5.5 -log M and 11.3 -log M.

B6: SEQ ID NO: 144 (peptide)
peptide: H[Aib]EGTFTSDVSYLKEEA[Aib]LQRFLEYLV-NH2
modifications: not fully specified (residue 14); also: K14 lipidated with C20DA[γE][OEG][OEG]- or C18DA[γE][OEG][OEG]-
As to B6, the “pEC50 hSCTR” value in assay [1] is 6.6 -log M. Besides, the “pEC50 hGLPR1” value in assay [2] is 10.8 -log M.
The like results for H[Aib]EGTFTSDVSYLKEEA[Aib]LQRFLEELV-NH2 (not fully specified (residue 14)) [SEQ ID NO: 151] were, in that order, 6.9 -log M and 10.6 -log M.

The values above are taken from patent US20260201008A1, “SECRETIN-DERIVED GLP1R SELECTIVE AGONISTS” (GUBRA A/S, priority 2023, published 2026).
